# Patent publication US20230002480A1
# Legend:
# Assay in all cases: cell-based or functional assay
# [1] = molecular target: HIV-1 Env of pseudovirus X1193_c1 (HIV-1)
# [2] = molecular target: HIV-1 Env of pseudovirus Q769.d22 (HIV-1)
# [3] = molecular target: HIV-1 Env of pseudovirus Ce1172_H1 (HIV-1)
# [4] = molecular target: HIV-1 Env of pseudovirus 3817.v2.c59 (HIV-1)
# [5] = molecular target: HIV-1 Env of pseudovirus WITO4160.33 (HIV-1)
# [6] = molecular target: HIV-1 Env of pseudovirus 6545.v4.c1 (HIV-1)
# [7] = molecular target: HIV-1 Env of pseudovirus A07412M1.vrc12 (HIV-1)
# [8] = molecular target: HIV-1 Env of pseudovirus 1394C9G1(Rev-) (HIV-1)
# [9] = molecular target: HIV-1 Env of pseudovirus THRO4156.18 (HIV-1)
# [10] = molecular target: HIV-1 Env of pseudovirus Du156.12 (HIV-1)
# [11] = molecular target: HIV-1 Env of pseudovirus ZM214M.PL15 (HIV-1)
# [12] = molecular target: HIV-1 Env of pseudovirus Du422.1 (HIV-1)
# [13] = molecular target: HIV-1 Env of pseudovirus T278-50 (HIV-1)
# [14] = molecular target: HIV-1 Env of pseudovirus SC422661.8 (HIV-1)
# [15] = molecular target: HIV-1 Env of pseudovirus 1006_11_C3_1601 (HIV-1)
# [16] = molecular target: HIV-1 Env of pseudovirus 620345.c01 (HIV-1)
# [17] = molecular target: HIV-1 Env of pseudovirus 231965.c01 (HIV-1)
# [18] = molecular target: HIV-1 Env of pseudovirus 1056_10_TA11_1826 (HIV-1)
# [19] = molecular target: HIV-1 Env of pseudovirus R3265.c06 (HIV-1)
# [20] = molecular target: HIV-1 Env of pseudovirus R2184.c04 (HIV-1)
# [21] = molecular target: HIV-1 Env of pseudovirus C2101.c01 (HIV-1)
# [22] = molecular target: HIV-1 Env of pseudovirus CNE5 (HIV-1)
# [23] = molecular target: HIV-1 Env of pseudovirus X2131_C1_B5 (HIV-1)
# [24] = molecular target: HIV-1 Env of pseudovirus X2088_c9 (HIV-1)
# [25] = molecular target: HIV-1 Env of pseudovirus PVO.4 (HIV-1)
# [26] = molecular target: HIV-1 Env of pseudovirus Ce703010054_2A2 (HIV-1)
# [27] = molecular target: HIV-1 Env of pseudovirus Ce0393_C3 (HIV-1)
# [28] = molecular target: HIV-1 Env of pseudovirus SC05_8C11_2344 (HIV-1)
# [29] = molecular target: HIV-1 Env of pseudovirus 246F C1G (HIV-1)
# [30] = molecular target: HIV-1 Env of pseudovirus QH0692.42 (HIV-1)
# [31] = molecular target: HIV-1 Env of pseudovirus ZM233M.PB6 (HIV-1)
# [32] = molecular target: HIV-1 Env of pseudovirus 191084 B7-19 (HIV-1)
# [33] = molecular target: HIV-1 Env of pseudovirus BJOX010000.06.2 (HIV-1)
# [34] = molecular target: HIV-1 Env of pseudovirus Ce704809221_1B3 (HIV-1)
# [35] = molecular target: HIV-1 Env of pseudovirus 6811.v7.c18 (HIV-1)
# [36] = molecular target: HIV-1 Env of pseudovirus ZM249M.PL1 (HIV-1)
substance,measurement,setting,value
8ANC195 (antibody),"IC50, titer in TZM.bl cells",[1],0.27 µg/mL
same,"IC80, titer in TZM.bl cells",[1],1.66 µg/mL
same,neutralization IC50,[2],0.26 µg/mL
same,neutralization IC80,[2],1.2 µg/mL
same,neutralization IC50,[3],42.3 µg/mL
same,neutralization IC80,[3],> 50 µg/mL
same,"IC50, titer in TZM.bl cells",[4],1 µg/mL
same,"IC80, titer in TZM.bl cells",[4],5.3 µg/mL
same,neutralization IC50,[5],> 50 µg/mL
same,neutralization IC80,[5],> 50 µg/mL
same,"IC50, titer in TZM.bl cells",[6],26.9 µg/mL
same,"IC80, titer in TZM.bl cells",[6],> 50 µg/mL
same,"IC50, titer in TZM.bl cells",[7],2.25 µg/mL
same,"IC80, titer in TZM.bl cells",[7],7.49 µg/mL
same,neutralization IC50,[8],> 50 µg/mL
same,neutralization IC80,[8],> 50 µg/mL
same,neutralization IC50,[9],> 50 µg/mL
same,neutralization IC80,[9],> 50 µg/mL
same,neutralization IC50,[10],0.22 µg/mL
same,neutralization IC80,[10],1.56 µg/mL
same,neutralization IC50,[11],0.91 µg/mL
same,neutralization IC80,[11],12.3 µg/mL
same,neutralization IC50,[12],> 50 µg/mL
same,neutralization IC80,[12],> 50 µg/mL
same,"IC50, titer in TZM.bl cells",[13],> 50 µg/mL
same,"IC80, titer in TZM.bl cells",[13],> 50 µg/mL
same,neutralization IC50,[14],0.29 µg/mL
same,neutralization IC80,[14],4.67 µg/mL
same,neutralization IC50,[15],0.43 µg/mL
same,neutralization IC80,[15],1.98 µg/mL
same,"IC50, titer in TZM.bl cells",[16],> 50 µg/mL
same,"IC80, titer in TZM.bl cells",[16],> 50 µg/mL
same,"IC50, titer in TZM.bl cells",[17],2.36 µg/mL
same,"IC80, titer in TZM.bl cells",[17],2.36 µg/mL
same,neutralization IC50,[18],> 50 µg/mL
same,neutralization IC80,[18],> 50 µg/mL
same,"IC50, titer in TZM.bl cells",[19],50 µg/mL
same,"IC80, titer in TZM.bl cells",[19],> 50 µg/mL
same,"IC50, titer in TZM.bl cells",[20],0.09 µg/mL
same,"IC80, titer in TZM.bl cells",[20],13 µg/mL
same,"IC50, titer in TZM.bl cells",[21],0.48 µg/mL
same,"IC80, titer in TZM.bl cells",[21],3.54 µg/mL
same,"IC50, titer in TZM.bl cells",[22],2.12 µg/mL
same,"IC80, titer in TZM.bl cells",[22],9.67 µg/mL
same,"IC50, titer in TZM.bl cells",[23],3.47 µg/mL
same,"IC80, titer in TZM.bl cells",[23],> 50 µg/mL
same,"IC50, titer in TZM.bl cells",[24],> 50 µg/mL
same,"IC80, titer in TZM.bl cells",[24],> 50 µg/mL
same,neutralization IC50,[25],0.52 µg/mL
same,neutralization IC80,[25],1.87 µg/mL
same,neutralization IC50,[26],13.6 µg/mL
same,neutralization IC80,[26],> 50 µg/mL
same,neutralization IC50,[27],6.77 µg/mL
same,neutralization IC80,[27],> 50 µg/mL
same,neutralization IC50,[28],0.47 µg/mL
same,neutralization IC80,[28],3.06 µg/mL
same,neutralization IC50,[29],12.8 µg/mL
same,neutralization IC80,[29],> 50 µg/mL
same,neutralization IC50,[30],2.71 µg/mL
same,neutralization IC80,[30],17.1 µg/mL
same,neutralization IC50,[31],7.39 µg/mL
same,neutralization IC80,[31],43.5 µg/mL
same,neutralization IC50,[32],> 50 µg/mL
same,neutralization IC80,[32],> 50 µg/mL
same,"IC50, titer in TZM.bl cells",[33],0.85 µg/mL
same,"IC80, titer in TZM.bl cells",[33],5.84 µg/mL
same,neutralization IC50,[34],0.48 µg/mL
same,neutralization IC80,[34],3.52 µg/mL
same,"IC50, titer in TZM.bl cells",[35],5.34 µg/mL
same,"IC80, titer in TZM.bl cells",[35],27.6 µg/mL
same,neutralization IC50,[36],> 50 µg/mL
same,neutralization IC80,[36],> 50 µg/mL
